{"source": "FireProtDB (doi:10.1021/bi00173a036)", "proteins": {"B1": {"name": "Alpha-lactalbumin wild type, P00711 (protein)", "chain": "MMSFVSLLLVGILFHATQAEQLTKCEVFRELKDLKGYGGVSLPEWVCTTFHTSGYDTQAIVQNNDSTEYGLFQINNKIWCKDDQNPHSSNICNISCDKFLDDDLTDDIMCVKKILDKVGINYWLAHKALCSEKLDQWLCEKL"}}, "details": "Bos taurus, Thermal, DSC, reversible: yes, whole UniProt chain shown", "data": [{"protein": "B1", "values": [{"measurement": "heat capacity change of unfolding", "setting": "pH 3, 44.3 °C, acetate 10 mM", "result": 1.3, "unit": "kcal/mol/K"}, {"measurement": "unfolding enthalpy (calorimetric)", "setting": "pH 3, 44.3 °C, acetate 10 mM", "result": 25.6, "unit": "kcal/mol"}, {"measurement": "heat capacity change of unfolding", "setting": "pH 3.2, 29.8 °C, acetate 10 mM", "result": 1.5, "unit": "kcal/mol/K"}, {"measurement": "unfolding enthalpy (calorimetric)", "setting": "pH 3.2, 29.8 °C, acetate 10 mM", "result": 21.4, "unit": "kcal/mol"}, {"measurement": "Tm", "setting": "pH 3.2, acetate 10 mM", "result": 29.8, "unit": "°C"}, {"measurement": "heat capacity change of unfolding", "setting": "pH 3.2, acetate 10 mM", "result": 0.92, "unit": "kcal/mol/K"}, {"measurement": "unfolding enthalpy (calorimetric)", "setting": "pH 3.2, acetate 10 mM", "result": 36.1, "unit": "kcal/mol"}, {"measurement": "unfolding enthalpy (van 't Hoff)", "setting": "pH 3.2, acetate 10 mM", "result": 43.5, "unit": "kcal/mol"}, {"measurement": "heat capacity change of unfolding", "setting": "pH 3.5, 41 °C, acetate 10 mM", "result": 1.6, "unit": "kcal/mol/K"}, {"measurement": "unfolding enthalpy (calorimetric)", "setting": "pH 3.5, 41 °C, acetate 10 mM", "result": 13.1, "unit": "kcal/mol"}, {"measurement": "Tm", "setting": "pH 3.5, acetate 10 mM", "result": 41, "unit": "°C"}, {"measurement": "heat capacity change of unfolding", "setting": "pH 3.5, acetate 10 mM", "result": 1.19, "unit": "kcal/mol/K"}, {"measurement": "unfolding enthalpy (calorimetric)", "setting": "pH 3.5, acetate 10 mM", "result": 47.8, "unit": "kcal/mol"}, {"measurement": "unfolding enthalpy (van 't Hoff)", "setting": "pH 3.5, acetate 10 mM", "result": 51.4, "unit": "kcal/mol"}, {"measurement": "heat capacity change of unfolding", "setting": "pH 4.2, 57 °C, acetate 10 mM", "result": 1.7, "unit": "kcal/mol/K"}, {"measurement": "unfolding enthalpy (calorimetric)", "setting": "pH 4.2, 57 °C, acetate 10 mM", "result": 2.72, "unit": "kcal/mol"}, {"measurement": "Tm", "setting": "pH 4.2, acetate 10 mM", "result": 57, "unit": "°C"}, {"measurement": "heat capacity change of unfolding", "setting": "pH 4.2, acetate 10 mM", "result": 1.61, "unit": "kcal/mol/K"}, {"measurement": "unfolding enthalpy (calorimetric)", "setting": "pH 4.2, acetate 10 mM", "result": 64.8, "unit": "kcal/mol"}, {"measurement": "unfolding enthalpy (van 't Hoff)", "setting": "pH 4.2, acetate 10 mM", "result": 59.8, "unit": "kcal/mol"}, {"measurement": "Tm", "setting": "pH 8, Tris-HCl 5 mM", "result": 64.3, "unit": "°C"}, {"measurement": "heat capacity change of unfolding", "setting": "pH 8, Tris-HCl 5 mM", "result": 1.7, "unit": "kcal/mol/K"}, {"measurement": "unfolding enthalpy (calorimetric)", "setting": "pH 8, Tris-HCl 5 mM", "result": 70.6, "unit": "kcal/mol"}, {"measurement": "unfolding enthalpy (van 't Hoff)", "setting": "pH 8, Tris-HCl 5 mM", "result": 69.1, "unit": "kcal/mol"}]}]}
